The record followed here is patent publication US20090130105A1.

The target in the experiment is All other mutant IGF-1R constructs. The experiment can be described thus: SPR, Fab over captured mutant hIGF-1R-Fc; all of SD001-SD019 other than SD015. On the technique in general: SPR reads the build-up and loss of mass on a sensor chip optically.

B1: M13-C06 Fab (Fab, V domains shown)
VH: EVQLLESGGGLVQPGGSLRLSCAASGFTFSIYRMQWVRQAPGKGLEWVSGISPSGGTTWYADSVKGRFTISRDNSKNTLYLQMNSLRAEDTAVYYCARWSGGSGYAFDIWGQGTMVTVSS
VL: DIQMTQSPLSLSASVGDRVTITCQASRDIRNYLNWYQQKPGKAPKLLIYDASSLQTGVPSRFGGSGSGTDFSFTIGSLQPEDIATYYCQQFDSLPHTFGQGTKLEIK
In the case of B1, the Kd (in general, the concentration at which binding is half-saturated) stood at 1 nM.

B2: M14-C03 Fab (Fab, V domains shown)
VH: EVQLLESGGGLVQPGGSLRLSCAASGFTFSKYMMSWVRQAPGKGLEWVSYISPSGGLTWYADSVKGRFTISRDNSKNTLYLQMNSLRAEDTAVYYCARDGARGYGMDVWGQGTTVTVSS
VL: DIQMTQSPATLSLSPGERATLSCRASQSVSSYLAWYQQKPGQAPRLLIYDASNRATGIPARFSGSGSGTDFTLTISSLEPEDFAVYYCQQRSNWPPEVTFGPGTKVDIK
B2 had an equilibrium dissociation constant (Kd) of 5 nM.
